Target: T1, recombinant hPD1 (Sino Biologicals, reference 10377-H08H) (human, UniProt Q15116 25-167)
T1 construct: also called Human recombinant PD-1; rPD1
Test: ELISA: human recombinant PD-1 immobilised, detection with anti-human Fc-peroxidase, TMB
Experimental: PD-1 binding ELISA assay. Human recombinant PD-1 (rPD1) protein was immobilized, and antibodies were added at different concentrations. Revelation was performed with an anti-human Fc antibody coupled to peroxidase. Colorimetry was determined at 450 nm using TMB substrate. The bifunctional molecules comprising an IL7 W142H N297A variant with 1 anti PD-1 arm ( ) was tested as control.

T1 sequence (Q15116 25-167 limits assumed): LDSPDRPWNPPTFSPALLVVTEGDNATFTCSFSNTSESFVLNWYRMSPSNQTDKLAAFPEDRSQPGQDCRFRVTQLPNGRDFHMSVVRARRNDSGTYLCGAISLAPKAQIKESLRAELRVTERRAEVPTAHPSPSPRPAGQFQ

EC50 (read off the curve) | Binder
~0.05 µg/mL | anti PD-1*1 IL7 W142H*1 N297A DHS (other, also called IL7 W142H N297A DHS) DKTHTCPPCPAPELLGGPSVFLFPPKPKDTLMISRTPEVTCVVVDVSHEDPEVKFNWYVDGVEVHNAKTKPREEQYASTYRVVSVLTVDHHDWLNGKEYKCKVSNKALPAPIEKTISKAKGQPREPQVYTLPPCRDELTKNQVSLWCLVKGFYPSDIAVEWESNGQPENNYKTTPPVLDSDGSFFLYSKLTVDKSRWQQGNVFSCSVMHEALHSHYTQKSLSLSPGK heavy: QIQLVQSGSELKKPGASVKVSCKASGYTFTHYAMNWVRQAPGQGLEWMGWINTNTGEPTYAQGFTGRFVFSLDTSVSTAYLQISSLKAEDTAVYYCAREREPGMDNWGQGTLVTVSSASTKGPSVFPLAPSSKSTSGGTAALGCLVKDYFPEPVTVSWNSGALTSGVHTFPAVLQSSGLYSLSSVVTVPSSSLGTQTYICNVNHKPSNTKVDKKVEPKSCDKTHTCPPCPAPELLGGPSVFLFPPKPKDTLMISRTPEVTCVVVDVSHEDPEVKFNWYVDGVEVHNAKTKPREEQYASTYRVVSVLTVDHHDWLNGKEYKCKVSNKALPAPIEKTISKAKGQPREPQVCTLPPSRDELTKNQVSLSCAVKGFYPSDIAVEWESNGQPENNYKTTPPVLDSDGSFFLVSKLTVDKSRWQQGNVFSCSVMHEALHSHYTQKSLSLSPGKGGGGSGGGGSGGGGSDCDIEGKDGKQYESVLMVSIDQLLDSMKEIGSNCLNNEFNFFKRHICDANKEGMFLFRAARKLRQFLKMNSTGDFDLHLLKVSEGTTILLNCTGQVKGRKPAALGEAQPTKSLEENKSLKEQKKLNDLCFLKRLLQEIKTCHNKILMGTKEH light: DVVMTQSPLSLPVTLGQPASISCRSSQSLVHANTNTYLEWYQQRPGQSPRLLIYKVSNRFSGVPDRFSGSGSGTDFTLKISRVEAEDVGVYYCFQGTHVPNTFGQGTKLEIKRTVAAPSVFIFPPSDEQLKSGTASVVCLLNNFYPREAKVQWKVDNALQSGNSQESVTEQDSKDSTYSLSSTLTLSKADYEKHKVYACEVTHQGLSSPVTKSFNRGEC
~0.03 µg/mL | anti PD-1*1 IL7 W142H*1 N297A LS (other, Fc mutant of anti PD-1*1 IL7W142H*1; also called IL7 W142H N297A LS) DKTHTCPPCPAPELLGGPSVFLFPPKPKDTLMISRTPEVTCVVVDVSHEDPEVKFNWYVDGVEVHNAKTKPREEQYASTYRVVSVLTVLHQDWLNGKEYKCKVSNKALPAPIEKTISKAKGQPREPQVYTLPPCRDELTKNQVSLWCLVKGFYPSDIAVEWESNGQPENNYKTTPPVLDSDGSFFLYSKLTVDKSRWQQGNVFSCSVLHEALHSHYTQKSLSLSPGK heavy: QIQLVQSGSELKKPGASVKVSCKASGYTFTHYAMNWVRQAPGQGLEWMGWINTNTGEPTYAQGFTGRFVFSLDTSVSTAYLQISSLKAEDTAVYYCAREREPGMDNWGQGTLVTVSSASTKGPSVFPLAPSSKSTSGGTAALGCLVKDYFPEPVTVSWNSGALTSGVHTFPAVLQSSGLYSLSSVVTVPSSSLGTQTYICNVNHKPSNTKVDKKVEPKSCDKTHTCPPCPAPELLGGPSVFLFPPKPKDTLMISRTPEVTCVVVDVSHEDPEVKFNWYVDGVEVHNAKTKPREEQYASTYRVVSVLTVLHQDWLNGKEYKCKVSNKALPAPIEKTISKAKGQPREPQVCTLPPSRDELTKNQVSLSCAVKGFYPSDIAVEWESNGQPENNYKTTPPVLDSDGSFFLVSKLTVDKSRWQQGNVFSCSVLHEALHSHYTQKSLSLSPGKGGGGSGGGGSGGGGSDCDIEGKDGKQYESVLMVSIDQLLDSMKEIGSNCLNNEFNFFKRHICDANKEGMFLFRAARKLRQFLKMNSTGDFDLHLLKVSEGTTILLNCTGQVKGRKPAALGEAQPTKSLEENKSLKEQKKLNDLCFLKRLLQEIKTCHNKILMGTKEH light: DVVMTQSPLSLPVTLGQPASISCRSSQSLVHANTNTYLEWYQQRPGQSPRLLIYKVSNRFSGVPDRFSGSGSGTDFTLKISRVEAEDVGVYYCFQGTHVPNTFGQGTKLEIKRTVAAPSVFIFPPSDEQLKSGTASVVCLLNNFYPREAKVQWKVDNALQSGNSQESVTEQDSKDSTYSLSSTLTLSKADYEKHKVYACEVTHQGLSSPVTKSFNRGEC

Reference: patent US20240067727A1 (OSE IMMUNOTHERAPEUTICS, published 2024)
